The target in assay [1] is HIV-1 HXB2 envelope (gp41) expressed on CHO[HIVe] (clone 7d2) cells (HIV-1 (HXB2), UniProt P04578 512-856). The assay is described as follows: cell-based or functional assay.
For assay [2], the target named is T1, IZN17 (peptide 11, AcIKKEIEAIKKEQEAIKKKIEAIEKLLQLTVWGIKQLQARIL-NH2) (N-terminal acetyl (Ac); C-terminal amide (NH2)).
T1 construct: also called peptide IZN17; 1ZN17
T1 chain: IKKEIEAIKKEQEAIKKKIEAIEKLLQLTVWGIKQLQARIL
The assay can be described thus: fluorescence polarization competition, displacement of peptide 12 from IZN17. (Polarisation of emitted light reports the rotation of a fluorescent probe.)

Assay [3] addresses T1, IZN17 (peptide 11, …). The assay can be described thus: fluorescence polarization competition, displacement of peptide 12 from IZN17; value inexact because the peptide aggregates.
The target in assay [4] is T1, IZN17 (peptide 11, …). The assay is described as follows: fluorescence polarization competition, displacement of peptide 12 from IZN17; upper limit of the assay.
In assay [5] the target is T1, IZN17 (peptide 11, …). The assay is described as follows: fluorescence polarization competitive binding assay with peptide 12 as probe.
Assay [6] concerns the target T1, IZN17 (peptide 11, …). The assay can be described thus: fluorescence polarization, direct saturation binding of fluorescein-labeled peptide 12 to IZN17, PBS, 25° C.
The target in assay [7] is T1, IZN17 (peptide 11, …). The assay can be described thus: fluorescence polarization competition, displacement of peptide 12 from IZN17; compared with peptide 1.

*1 amine or outer side, *2 acyl side, *3 side chain or, on linkers, in order; H or OH if unused. Where no end group is shown, it is not given here. [ ]: non-standard residue; d: D form. Suc = O=C(CCC(=O)[*:2])[*:1]

Here are results for 11 molecules from patent US20110046043A1 (NEW YORK UNIVERSITY, published 2011).

Usually Kd stands for the concentration at which binding is half-saturated. High values mean lower affinity, low ones higher affinity.

HIV-1 HXB2 envelope (gp41) expressed on CHO[HIVe] (clone 7d2) cells, sequence (P04578 512-856): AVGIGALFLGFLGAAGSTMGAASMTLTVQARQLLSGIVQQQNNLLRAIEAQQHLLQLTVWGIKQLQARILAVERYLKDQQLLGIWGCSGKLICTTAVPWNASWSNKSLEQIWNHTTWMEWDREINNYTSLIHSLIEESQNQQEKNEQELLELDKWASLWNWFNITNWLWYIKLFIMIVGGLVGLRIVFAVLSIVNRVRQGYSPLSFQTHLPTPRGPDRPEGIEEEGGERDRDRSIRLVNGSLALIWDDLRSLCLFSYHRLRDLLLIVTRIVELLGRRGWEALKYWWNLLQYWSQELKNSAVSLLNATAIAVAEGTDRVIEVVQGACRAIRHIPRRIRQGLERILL

B1: HBS α-helix 6 (XMTWEEWDKKIEEYT) (peptide)
peptide: XMTWEEWDKKIEEYT
modifications: X at position 1 is a pentenoic acid residue; N-terminal hydrogen bond surrogate (carbon-carbon bond by ring-closing metathesis in place of an i and i+4 hydrogen bond)
notes: also called peptide 6
Take B1: in assay [1], the “inhibition of gp41-mediated cell-cell fusion (syncytium formation, β-galactosidase activity)” value is above 200. Also, the binding result in the assay with IZN17 (peptide 11, …) [2] is on record as “binds”.

B2: Peptide 10 (AcMTWEEWDKKIEEYTKKI-NH2) (peptide)
peptide: Ac-MTWEEWDKKIEEYTKKI-NH2
notes: Unconstrained counterpart of HBS α-helix 9; also called unconstrained peptide 10
Consider B2, for which the binding result in the assay with IZN17 (peptide 11, …) [2] is “binds”.

B3: Peptide 1 (AcMTWMEWDREINNYT-NH2), 14-residue C-peptide derived from gp41 (peptide)
peptide: Ac-MTWMEWDREINNYT-NH2
notes: Unconstrained parent peptide; also called unconstrained C-peptide
Consider B3, for which, in the assay with IZN17 (peptide 11, …) [3], binding was put at a Kd of 37 µM.

B4: HBS α-helix 9 (XMTWEEWDKKIEEYTKKI) (peptide)
peptide: XMTWEEWDKKIEEYTKKI
modifications: X at position 1 is a pentenoic acid residue; internally-constrained α-helical region (hydrogen bond surrogate, carbon-carbon bond by ring-closing metathesis) spanning residues 1 through 4 of SEQ ID NO: 9
notes: also called peptide 9
B4: the “inhibition of gp41-mediated cell-cell fusion (syncytium formation, β-galactosidase activity), EC50” value in assay [1] came to 43 µM. The molecule further came in with a Kd in the assay with IZN17 (peptide 11, …) [4] below 5 µM.

B5: HBS α-helix 5 (XWAAWDREINNYT) (peptide)
peptide: XWAAWDREINNYT
modifications: X at position 1 is a pentenoic acid residue; N-terminal hydrogen bond surrogate (carbon-carbon bond by ring-closing metathesis in place of an i and i+4 hydrogen bond)
notes: Similar to 1 and 2 but missing N-terminal Met-626 and Thr-627; also called peptide 5
For B5, in assay [1], the “inhibition of gp41-mediated cell-cell fusion (syncytium formation, β-galactosidase activity)” value was above 200. The binding result with IZN17 (peptide 11, …) [5] was “no binding”.

B6: HBS α-helix 4 (XAAAWEEWDKKI) (peptide)
peptide: XAAAWEEWDKKI
modifications: X at position 1 is a pentenoic acid residue; N-terminal hydrogen bond surrogate (carbon-carbon bond by ring-closing metathesis in place of an i and i+4 hydrogen bond)
notes: Trp/Trp/Ile motif lies outside of the constraint; also called peptide 4
For B6, the “inhibition of gp41-mediated cell-cell fusion (syncytium formation, β-galactosidase activity)” value in assay [1] is above 200. The binding result with IZN17 (peptide 11, …) [5] was “no binding”.

B7: HBS α-helix 8 (XNEMTWEEWDKKIEEYT) (peptide)
peptide: XNEMTWEEWDKKIEEYT
modifications: X at position 1 is a pentenoic acid residue; N-terminal hydrogen bond surrogate (carbon-carbon bond by ring-closing metathesis in place of an i and i+4 hydrogen bond)
notes: also called peptide 8
For B7, the “inhibition of gp41-mediated cell-cell fusion (syncytium formation, β-galactosidase activity)” value in assay [1] is above 200. The molecule also came in with a Kd with IZN17 (peptide 11, …) [4] below 5 µM.

B8: Fluorescein-labeled peptide 12 (suc-MTWMEWDREINNYTC^Flu) (peptide)
peptide: Suc-MTWMEWDREINNYTC(fluorescein)-NH2
notes: also called fluorescent probe 12; fluorescein-labeled C-peptide derivative
For B8, the Kd in the assay with IZN17 (peptide 11, …) [6] was 24 µM.

B9: HBS α-helix 2 (XMTWMEWDREINNYT) (peptide)
peptide: [Pentenoic acid]MTWMEWDREINNYT
modifications: staple (positions not given here); not fully specified (C-terminus, bridges)
notes: HBS-constrained form of peptide 1; made on Rink amide resin; also called peptide 2
For B9, in the assay with IZN17 (peptide 11, …) [7], the binding result is given as “binds”. The “inhibition of gp41-mediated cell-cell fusion (syncytium formation, β-galactosidase activity)” value in assay [1] is above 200.

B10: HBS α-helix 3 (XWAAWDKKI) (peptide)
peptide: XWAAWDKKI
modifications: X at position 1 is a pentenoic acid residue; N-terminal hydrogen bond surrogate (carbon-carbon bond by ring-closing metathesis in place of an i and i+4 hydrogen bond)
notes: Shortest designed peptide with the Trp/Trp/Ile motif; also called peptide 3
On to B10, for which the “inhibition of gp41-mediated cell-cell fusion (syncytium formation, β-galactosidase activity)” value in assay [1] was above 200. Besides, the binding result with IZN17 (peptide 11, …) [5] is “no binding”.

B11: HBS α-helix 7 (XEMAWEEWDKKIEEYT) (peptide)
peptide: XEMAWEEWDKKIEEYT
modifications: X at position 1 is a pentenoic acid residue; N-terminal hydrogen bond surrogate (carbon-carbon bond by ring-closing metathesis in place of an i and i+4 hydrogen bond)
notes: Thr-627 replaced with alanine; a glutamic acid added at the N-terminus; also called peptide 7
On to B11, for which, in assay [1], the “inhibition of gp41-mediated cell-cell fusion (syncytium formation, β-galactosidase activity)” value was above 200. Besides, the “fold lower affinity than HBS α-helix 6” value with IZN17 (peptide 11, …) [2] was 20 fold.
